Biological target: gp41 of HIV-1/IIIB virions (virus stock, culture supernatant) (HIV-1 (isolate IIIB)) (UniProt P04578)
Experiment: SEC + ELISA

Substance “gp120 of HIV-1/IIIB virions (virus stock, culture supernatant) (from UniProt P04578 33-511) (natural protein)” has a percent of total gp120 virion bound (virus + sCD4) of 24%, a percent of total gp120 virion bound (virus + sCD4 + thrombin) of 18% and a percent of total gp120 virion bound (virus + thrombin + sCD4) of 20%. For the same substance, the percent of total gp120 virion bound (virus + thrombin) was 59%, the percent of total gp120 virion bound (virus alone) was 57% and the percent of total gp120 virion-bound (virus stock) was 55%. For the same substance, the reduction of virion bound gp120 after 10 h at 4C with sCD4 was 10%.

From publication PMC2118908
